# According to PMC11629141:
# Tests used:
# [1] = biological target: 6G11 (BI‐1206), full‐length antibody containing the PGLALA Fc mutations (human); experiment: BLI; 6G11 (5 µg/mL) loaded on Protein A tips; original or mutated S2B scFv 500-7.8 nM in 1:2 dilutions; association and dissociation 180 s each
# [2] = biological target: 6G11 (BI‐1206), full‐length antibody containing the PGLALA Fc mutations (human); experiment: ELISA; 6G11 coated (5 µg/mL, MaxiSorp, overnight 4°C); scFv 500 to 0.19 nM, 1 h RT; detection with StrepTactin-HRP
# Sequence of 6G11 (BI‐1206), full‐length antibody containing the PGLALA Fc mutations (human) (heavy, as listed by the source, chain 1 of 2): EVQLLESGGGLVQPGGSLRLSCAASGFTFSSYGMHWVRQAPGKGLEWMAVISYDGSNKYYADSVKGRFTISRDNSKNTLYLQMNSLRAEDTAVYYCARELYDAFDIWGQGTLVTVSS
# Sequence of 6G11 (BI‐1206), full‐length antibody containing the PGLALA Fc mutations (human) (light, as listed by the source, chain 2 of 2): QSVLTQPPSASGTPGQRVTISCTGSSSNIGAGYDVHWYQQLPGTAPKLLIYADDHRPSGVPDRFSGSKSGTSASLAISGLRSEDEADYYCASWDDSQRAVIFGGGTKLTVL
Binder,fold decrease in affinity against the original S2B [1] [fold],EC50 [2] [nM],also measured
"S2B R101A scFv, solitary (scFv, V domains shown) VH: AVTLDESGGGLQTPGGGLSLVCKASGFTFSSYSMVWVRQAPSKRLEWVAGIYSSATWTYYAPAVKGRATISRDNGQSTVRLQLNDLRAEDTGTYFCAKTSASGWTAYSASAIDAWGHGTEVIV VL: ALTQPSSVSANPGETVKITCSGGSSYYGWYQQKSPGSAPVTVIYSNDKRPSDIPSRFSGSTSGSTATLTITGVQADDEAVYFCGGYDSNIHGGIFGAGTTLTVL",6,,
"S2B W104A scFv, solitary (scFv, V domains shown) VH: AVTLDESGGGLQTPGGGLSLVCKASGFTFSSYSMVWVRQAPSKRLEWVAGIYSSATWTYYAPAVKGRATISRDNGQSTVRLQLNDLRAEDTGTYFCAKTSRSGATAYSASAIDAWGHGTEVIV VL: ALTQPSSVSANPGETVKITCSGGSSYYGWYQQKSPGSAPVTVIYSNDKRPSDIPSRFSGSTSGSTATLTITGVQADDEAVYFCGGYDSNIHGGIFGAGTTLTVL",10,,
"S2B Y52A scFv, solitary (scFv, V domains shown) VH: AVTLDESGGGLQTPGGGLSLVCKASGFTFSSYSMVWVRQAPSKRLEWVAGIASSATWTYYAPAVKGRATISRDNGQSTVRLQLNDLRAEDTGTYFCAKTSRSGWTAYSASAIDAWGHGTEVIV VL: ALTQPSSVSANPGETVKITCSGGSSYYGWYQQKSPGSAPVTVIYSNDKRPSDIPSRFSGSTSGSTATLTITGVQADDEAVYFCGGYDSNIHGGIFGAGTTLTVL",,,fold decrease in binding against the original S2B [1]: 4 fold

# Second part, led by results:
fold decrease in affinity against the original S2B [1] [fold],EC50 [2] [nM],Binder,also measured
,28.7,"S2B scFv (blocking anti‐6G11 scFv clone 2), solitary (scFv, V domains shown) VH: AVTLDESGGGLQTPGGGLSLVCKASGFTFSSYSMVWVRQAPSKRLEWVAGIYSSATWTYYAPAVKGRATISRDNGQSTVRLQLNDLRAEDTGTYFCAKTSRSGWTAYSASAIDAWGHGTEVIV VL: ALTQPSSVSANPGETVKITCSGGSSYYGWYQQKSPGSAPVTVIYSNDKRPSDIPSRFSGSTSGSTATLTITGVQADDEAVYFCGGYDSNIHGGIFGAGTTLTVL",
,3.9,"S2N scFv (non‐blocking anti‐6G11 scFv clone 2), solitary (scFv, V domains shown) VH: AVTLDESGGGLQTPGGGLSLVCKASGFSFSDRGMQWVRQAPGKGLEWVAGIDDDDNNTWYATAVKGRATISRDNGQSTVRLQLNSLRAEDTGTYYCAKTPTSYYWGAAEIDAWGHGTEVIV VL: ALTQPSSVSANPGETVKITCSGSSGSYGWYQQKAPGSAPVTVIYDNNNRPSNIPSRFSGSLSGSTNTLTITGVQADDEAVYFCGSYEGSSYVGIFGAGTTLTVL",
